Assay results: patent US20050025777A1, “Particle-mediated delivery of antigens” (priority 1994, published 2005)
Values joined by “and” are separate entries in the source; they are usually repeats but may differ in a detail not shown here. Identical values can stand only once.

Legend:
[1] = Induction of cytotoxic cellular response by HIV gp 120 peptide; conditions: in vivo
[2] = biological target: Human Alpha 1 Anti-Trypsin Protein (Homo sapiens, UniProt P01009); experiment: Antibody responses to human alpha 1 anti-trypsin protein after immunization; type: in vivo, mice
Human Alpha 1 Anti-Trypsin Protein, sequence (P01009 25-418): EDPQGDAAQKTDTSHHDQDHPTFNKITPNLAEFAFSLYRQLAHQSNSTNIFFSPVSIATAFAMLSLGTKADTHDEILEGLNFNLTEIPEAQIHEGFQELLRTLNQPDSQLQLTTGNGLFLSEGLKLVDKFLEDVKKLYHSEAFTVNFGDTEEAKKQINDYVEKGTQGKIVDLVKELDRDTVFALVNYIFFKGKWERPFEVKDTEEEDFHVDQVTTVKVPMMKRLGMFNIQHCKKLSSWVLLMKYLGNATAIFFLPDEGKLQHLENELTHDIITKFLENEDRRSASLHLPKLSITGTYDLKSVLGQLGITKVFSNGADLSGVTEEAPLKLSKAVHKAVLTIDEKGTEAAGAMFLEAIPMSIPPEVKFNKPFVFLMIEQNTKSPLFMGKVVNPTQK

[3] = Accell (no adjuvant), prime + 1 boost
[4] = Accell (no adjuvant), prime only

Compound | regimen required to induce a cytotoxic cellular response [1] | number with detectable antibody/total number tested [2, 3] | reciprocal antibody titers [2, 3] | number with detectable antibody/total number tested [2, 4] | reciprocal antibody titers [2, 4] | number with detectable antibody/total number tested ([2]; injection with Freund's adjuvant, prime + 1 boost) | number with detectable antibody/total number tested ([2]; injection with Freund's adjuvant, prime only)
CC[C@H](C)[C@H](NC(=O)[C@@H](NC(=O)[C@@H](NC(=O)[C@H](Cc1ccccc1)NC(=O)[C@H](C)NC(=O)[C@H](CCCNC(=N)N)NC(=O)CNC(=O)[C@@H]1CCCN1C(=O)CNC(=O)[C@H](CCCNC(=N)N)NC(=O)[C@H](CCC(N)=O)NC(=O)[C@@H](NC(=O)[C@@H](N)CCCNC(=N)N)[C@@H](C)CC)C(C)C)[C@@H](C)O)C(=O)NCC(=O)N[C@@H](CCCCN)C(=O)O [HIV gp 120] | a single dose, i.e. the prime, is all that is required | – | – | – | – | – | –
Human Alpha 1 Anti-Trypsin Protein: Human Alpha 1 Anti-Trypsin Protein used as immunogen | – | 4/4 | 9500 and 6500 and 5500 | 4/4 | 350 and 375 and 210 and 250 | 4/4 | 4/4
